Assay results published in the nanobody polyreactivity screen of Harvey et al. (2022).

Experiment: yeast display, Sf9 membrane polyspecificity reagent, FACS + sequencing; frameworks hold sequencing errors
In short: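 Nanobodies from a synthetic yeast display library (Saccharomyces cerevisiae BJ5465), induced 36–48 hours with galactose, were stained 1 hour at 4 °C with 10% biotinylated, detergent-solubilized Sf9 membrane reagent, enriched on streptavidin microbeads, then FACS-sorted. Anti-HA (expression) and streptavidin (reagent binding) fluorescence set low and high (top ~1%) gates. Polyreactivity labels come from the gate of origin. Genes were colony-PCR amplified, MiSeq 2 × 250 sequenced and filtered by CDR length.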

| Sequence | polyreactivity (PSR sort gate) |
| --- | --- |
| QVQLVESGGGLVQAGGSLRLSCAASGFTFPYYTMGWYRQAPGKERELVATISYSGGRTYYADSVKGRFTISRDNAKNTVYLQMNSLKPEDTAVYYCNKVVRLQSRYDYWGQGTQVTVSS | high polyreactivity |
| QVLLQESGGLGQAGCSLPMSCAASGSISTALSMGWYRQAPGKERELVATISDGASTNYADSVKGRFTISRVNAKNTVYLQMNSLKPEDTEVYYCADQSQYRQDHRYWGQGTQVTVSS | high polyreactivity |
| QVQLVESGGGLVQAGGSLRLSCAASGFIFHDNAMGWYRQAPGKERELVAAISRSGGRTYYADSVKGRFTISRDNAKNTVYLQMNSLKPEDTAVYYCAAVPPPGGLDYWGQGTQVTVSS | high polyreactivity |
| QVQLVESGGGLVQAGGSLRLSCAASGSTFAGYVMGFYIQATGKERELVAAISGSGGSTYYADSVKGRFTISRDNAKKTVYLQMNSLKPEDTAVYYCAKRAIIKYRGGYGYWGQGTQVTVSS | high polyreactivity |
| QVQLVESGGGLVQAGGSLRLSCAASGFTFGLYAMGWYRQAPGKERELVAVISSSGGSTYDADSVKGRFTISRDNAKNTVYLQMNSLKPEETAVYYCAAEWHDYKFDVTYDYWGQGTQVTVSS | low polyreactivity |
| QVQLVESGGGLVQAGGSLSLSCAASGRTFYAYAMGWYRQAPGTERELVACIDKSGGSPYYADSVKGRFTISRTMRRYRLFTDEQPETGRYRGLLLRCWCVVLSDIQFWGEFDYDYWGQGTQVTVSS | low polyreactivity |
| QVQLVESGGGLVQAGGSLRLSCAASGRIFDSYTMGWYRQEPGKERELVAAISGGGITNYADSVKGRFTISRDNAKNTVYLQMNSLKPEDTAVYYCAARDRYYFGGMYYWGQGTQVTVSS | low polyreactivity |
| QVQLVESGGGLVQAGGSLRLSCAASGNTFYWNAMGWYRQAPGKERELVAAISTTGVSTYYADSVKGRFTISRDNAKNTVYLQMNSLKPEDTAVYYCAAEIIGYHTIYDYWGQGTQVTVSS | low polyreactivity |
| QVQLVESGGGLVQAGGSLRLSCAASGRTFRYNAMGWYRQAPGKERELVAAISASGGSTYYADSVKGRFTISRDNAKNTVYLQMNSLKPEDTAVYYCATYYRVGYDYWGQGTQVTVSS | high polyreactivity |
| QVQLEESGGGLVQAGGSLRLSCAASGSIFGYYAMGWYRQAPGKERELVAAITTGGSTSYADSVKGRFTISRDNAKNTVYLQMNSLKPEDTAVYYCNARFKRLFGRADDYWGQGTQVTVSS | low polyreactivity |
| QVQLVESGGGLVQAGGSLRLSCAASGLIIWLYTLGWYRQAPGKESELVAAIDWSGGSTYYADSVKGRFTISRDNAKNTVYLQMNSLKPEDTAVYYCAADPEPSYRFDYWGQGTQVTVSS | low polyreactivity |
| QVQLVESGGGLVQAGGSLRLSCAASGSTFGWYGMGWYRQAPGKERELVASIRWSGGITYYADSVKGRFTISRDNAKNTVYLQMNSLKPEDTAVYSCAARTYRYFGRYDYWGQGTQVTVSS | high polyreactivity |
| QVQLVESGGGLVQAGGSLRLSCAASGFTFGPKAMGWYRQAPVKERELVAAITFRGDSTYYADSVKVRFTISRDYAKNTVYLQMNCLKPEDTAVYYCATHDRWHHRSLPYEYWGQGTQVTVSS | low polyreactivity |
| QVQLVESGGGLVQAGGSLRLSCAASGRIFYQYAMGWYRQAPGKERELVASITTSGGNTYYADSVKGRFTISRDNAKITFYLQMNSLKPEDTAVYYCAARFNWRQWLYEYWGQGTQVTGSS | low polyreactivity |
| QVHLVESGGGLVQAGGSLRLSCAASGFTFLKNAMVWNRQAPWKERELVAAITSSGGRTYYADSVKGRFTISRDNAKNTVYLQMNSLKPEDTAVYYCNKGPLPGYDYWGQGTQVTVSS | high polyreactivity |
| QVQLVESGGGLVQAGGSLRLSCAASGSIFDYNAMGWYRQAPGKERELVAAISGSGVRTYYADSVKGRFTISRDNAKNTVYLQMNSLKPEDTAVYYCAAAVGRPRREYDYWGQGTQVTVSS | high polyreactivity |
| QVQLVESGGGLVQAGGSLRLSCAASGFIFVKNAMGWYRQAPGKERELVAVISTRGGRTYYADSVKGRFTISRDNAKNTVYLQMNSLKPEDTAVYYCAAGDQYKTRRNGYGYWGQGTQVTVSS | high polyreactivity |
| QVQLVESGGGLVQAGGSLRLSCAASGFIFKRYAMGWYRQAPGKEREFVAAISWGGGNTYYADSVKGRFTISRDNAKNTVYLQMNSLKPEDTAVYYCAKVTSALKYGYWGQGTQVTVSS | high polyreactivity |
| QVQRVESGGGLVQAGGSLRLSCAPSGSTFPSYAMGWYRQAPGKERELVAAITRRGGRTYYADSVKGRFTISRDNAKKTVYLQMNSLKPEDTAVYYCNRVSRKILDGDYDYWGQGTQVTVSS | high polyreactivity |
| QVQLVESGGGLVQAGGSLRLSCAASGSTFPRNAMGWYRQAPGKERELVAAITSGGSTYYADSVKGRFTISRDNAKNTVYLQMNSLKPEDTAVYYCAKSRSSYPYRTYYYWGQGTQVTVSS | low polyreactivity |
| QVQLVESGGGLVQAGGSLRLSCAASGITLLVNAMGWYRQAPGKERELVAAISGSSGGSTYYADSVKGRFTISRDNAKNTVYLQMNSLKPEDTAVYYCAKRKWYWGLSYIYDSWGQGTQVTVSS | low polyreactivity |
| QVHLVESGGGLVQAGGSLRLSCAASGFTFDYYAMGWYRQAPGKERELVAAISWSGASTYYADSVKGRFTISRDNAKNTVYLQMNSLKPEDTAVYYCNRPKWYDGDYWGQGTQVTVSS | high polyreactivity |

| Sequence | polyreactivity (PSR sort gate) |
| --- | --- |
| QVQLVESGGGLVQAGGSLRLSCAASGFIFRKYAMGWYRQAPGKERELVAAITNGGSTYADSVKGRFTISRDNAKNTVYLQMNSLKPEDTAVYYCNARYRPRQRPEGGYWGQGTQVTVSS | high polyreactivity |
| QVQLVESGGGLVQAGGSLRLSCAASGSIFNLYTMGWYRQAPGKEREFVSAISSSGTSTYYADSVKGRFTISRDNAKNTVYLQMNSLKPEDTAVYYCAADWTGGFYTWYVIPYDYWGQGTQVTVSS | low polyreactivity |
| QVQLVESGGGLVQAGGSLRLSCAASGRIYLYAMGWYRQAPRKERELVASISYSGGSTYYADSVKGRFTISRDNAKNTVYLQMNSLKPEDTAVYYCATRRAGSCPPYGYWGQGSQVTVSS | high polyreactivity |
| QVQLVESGGGLVQAGGSLRLSCAASGIFAWNAMGWYRQAPGKERELVAAISWSGGSTYADSVKGRFTISRDNAKNTVYLQMNSLKPEDTAVYYCAKVSSLTSKSDYWGQGTQVTVSS | low polyreactivity |
| QVQLVESGGGLVQAGGSLRLSCAASGSTFGRYAMGWYRQAPGKERELVAAISRGTTTNYADSVKGRFTFSRDIAKNTVYLQMNSLKPVDTAVYYCAAESPSVFDGYAQLYIILEDYWGQGTQVTVSS | low polyreactivity |
| QVQLVESVGGLVQAGGSLRLSCAASGSTFYNNAMGWYRQAPGKERELVAAISSGGGTYYADSVKGRFTISRDNAMNTVYLQMNSLKPEDTAVYYCAADFANTTHWGRIKRNDYWGQGTQVTVSS | low polyreactivity |
| QVQLVESGGGLVQAGGSLRLSCAASGFIIDPNAMGWYSQAPGKERDLVAAISSSGGRTYYADSVKGRFTISRDNAKNTVYFQLNSLKPEDTAVYYCATDTSVQGQEYDYWGKGTQVTVSS | low polyreactivity |
| QVQLVESGGGLVQAGGSLRLSCAASGRIFYGYTMGWYRQAPGKERELVAAISWSGGSTYYADSVKGRFTISRDNAKNTVYLQLNSLKPEDTAVYYCNAVTLWYIYGWDYYYWGQGTQVTVSS | high polyreactivity |
| QVQLVESGGGLVQAGGSLRLSCAASGRTFEQNVMGWYRQAPGTERELVAAITTGGSTNYADSVKGRFTISRDNAKNTVYLQMNSLKPEDTAVYYCAADRYLGGDYDYWGQGTQVTVSS | low polyreactivity |
| QVQLVESGGGLVQAGGSLRLSCAASGRILRVNAMGWYRQAPGKERELVATITFRGGSTYYADSVKGRCTISRDNAKNTVYLQMNSLKPEDTAVYSCAKVIYRYNETYDYWGQGTQVTVSS | high polyreactivity |
| QVHLVESGGGLVQAGGSLRLICAASGFIFPRTAMGSYRQAPGKERELVAAISVSGGSTYYADSVKGRFTISRDYAKNTVYLQMNSLKPEDTAVYYCAKRTWDLRRTRHYYWGQGNQVTVSS | low polyreactivity |
| QVQLVESGGGLVQAGGSLRLSCAASGSTFPYYAMGWYRQAPGKERELVAAITSSGGSTYYADSVKGRFTISRDNAKNTVYLQMNSLKPEDTAVYYCAKGYGPYRQMNYWGQGTQVTVSS | low polyreactivity |
| QVQLVESGGGLVQAGGSLRLSCAASGFTFDNYVMGWYRQAPGKERELVAAISKSGTSTYYADSVKGRFTISRDNAKNTVYLQMNSLKPEDTAVYYCAAALPGYGDYYYWGQGTQVTVSS | high polyreactivity |
| QVQLVESGGALVQAGGSLRLSCAASGRIFVVNAMGWYRQAPGKERELGAAISIRGTRTYYADSVKGRFTISRDNAKNTVYLQMNSLKPEDTAVYYCAADASYTEGMDYWGQGTQVTVSS | high polyreactivity |
| QVQLVESGGGLVQAGGSLRLSCAASGYTFASYDMGWYRQAPGKERELVAAIDWSGGSTYYADSVKGRFTISRDNAKNTVYLQMNSLKPEDTAVYYCAAERPWTYGSDGMDFWGQGTQVTVSS | low polyreactivity |
| QVQLVESGGGLVQAGGSLRLSCAASGRIFTGNAMGWYRQAPGKESQLVAAITRNGGSTYYADSVKGRFTISRDNEKYTVYLQMNRLKPEDTAVYYCNARYSTTYYGTIYRGMDYWGQGSQVTVSS | high polyreactivity |
| QVQLVESGGGLVQAGGSLRLSCAASGSTFVHYAMGWYRQAPGKERELVAAINDGGSTHYADSVKGRFTISRDNAKNTVYLQMNSLKPEDTAVYYCAAEYVWYRYPDYWGAYDYWGQGTQVTVSS | low polyreactivity |
| QVQLVESGGGEVQEGGILRLSCAASGSIFSRNSMGWYRQAPGKDRELVAAITWSGGSTYYADSVKGRFTISRDNAKYTVYLLMNSLKPEDTAVYYCNADFAGTPNQYDYWGQGTQVTVSA | high polyreactivity |
| QDQRVDSGRGLVQAGGSLRLSCAASGSIFDFYARGWNRPAPGKERELVATISSAGSTYYAESVKGRFTISRDNAKNTVYLQMNSLKPEDTALYYCARGYIRSYWWYHSDRGDFWGQGTQVTVSS | low polyreactivity |
| QVQLVESGGGLVQAGGSLRLSCAASGRTFYSYAMGWYRQAPGKERELVAAISSSSGRTYYADSVKGRFTISRDNAKNTVYLQMNSLKPEDTGVYYCNRAGGYRTTFYSWGQGTQVTVSS | high polyreactivity |
| QVQLVESGGGLVQAGGSLRLSCAASGRIFGLYAMGWYRQAPGKERELVAAIRGRGGRTSYADSVKGRFTISRDNAKNTVYLQMNSLKPEDTAVYYCNAELYPWPGVVRYNYWGQGTQVTVSS | high polyreactivity |
